Measurements reported in US20040077031A1, “Novel methionine aminopeptidase-2 and uses thereof” (priority 2002, published 2004).

Experiments:
Test in all cases: Kinetic constants of MetAP2 with Mn2+ on peptide substrates (chromogenic assay)
Type in all cases: biochemical, human
Conditions in all cases: other: MetAP2 with 100 μM Mn2+; pH 7.4
[1] = substrate: CSCC[C@H](N)C(=O)NCC(=O)N[C@@H](CCCCN)C(=O)N[C@H](C(=O)O)C(C)C
Source text: (§1) A coupled-enzyme chromogenic assay was used to measure methionine aminopeptidase activity by monitoring the production of free methionine cleaved from specific peptide substrates containing methionine. […] Free methionine was oxidized with L-amino acid oxidase (AAO, Sigma Catalog No. A-9378) and horseradish peroxidase (HRP, Sigma Catalog No. P-8451). Oxidation by AAO of free methionine generates hydrogen peroxide (H2O2) which then reacts with HRP oxidizing 0-dianisidine (Sigma Catalog No. D-1954) or 10-acetyl-3,7-dihydrophenoxazine (Amplex Red, Molecular Probes). Assays were performed in 96-well microtiter plates. Enzyme preparations were diluted in assay buffer (50 mM HEPES, pH 7.4, 100 mM NaCl), and 10 μl of the enzymes were introduced into each well. A mixture (90 μl) of 0.1 mg/ml L-amino acid oxidase, 0.1 mg/ml of horseradish peroxidase, 0.1 mg/ml ortho-dianisidine, and 0.5 mM peptide substrate was added to each cell. The reactions were carried out at room temperature, and the absorbance at 450 nanometer (A450) was measured every 20 seconds over a period of twenty minutes using an automatic plate reader (Molecular Devices, Calif., USA). The rate in mOD/min, calculated for each well, was used to represent MetAP1 or MetAP2 activity. Under this assay condition, the methionine cleaved from peptide substrate by MetAP1 or MetAP2 was instantaneously oxidized to generate a final A450 readout. It was determined that 1 μM methionine generated a 2.25 mOD increase in the A450 readout.
(§2) MetAP2 using Mn^2+ as cofactor was studied to obtain kinetic constants on several peptide substrates. […] Enzyme kinetics was studied using the chromogenic assay to determine enzymatic activity as described in Example 3. […] These peptides were tested at a final concentration of 20, 40, 80, 160, 320, and 640 μM in the assay buffer (50 mM HEPES, pH 7.4, 100 mM NaCl). […] The initial rate of methionine cleavage was determined by measuring the A450 change as described above. Kinetic constants were calculated using Linewaver-Burk plots.

[2] = substrate: CSCC[C@H](N)C(=O)NCC(=O)N[C@@H](C)C(=O)N[C@@H](CCC(N)=O)C(=O)N[C@@H](Cc1ccccc1)C(=O)N[C@@H](CO)C(=O)N[C@@H](CCCCN)C(=O)N[C@H](C(=O)O)[C@@H](C)O
Source text: as §1, §2

[3] = substrate: CSCC[C@H](N)C(=O)NCC(=O)N[C@@H](CC(N)=O)C(=O)N[C@@H](C)C(=O)N[C@@H](C)C(=O)N[C@@H](C)C(=O)N[C@@H](C)C(=O)N[C@@H](CCCCN)C(=O)O
Source text: as §1, §2

[4] = substrate: CSCC[C@H](N)C(=O)NCC(=O)N[C@@H](CC(N)=O)C(=O)N[C@@H](CC(C)C)C(=O)N[C@@H](CCCCN)C(=O)N[C@@H](CO)C(=O)N[C@H](C(=O)N[C@@H](C)C(=O)O)C(C)C
Source text: as §1, §2

[5] = substrate: CSCC[C@H](N)C(=O)NCC(=O)N[C@@H](CCCCN)C(=O)N[C@H](C(=O)N[C@@H](CCCCN)C(=O)N[C@H](C(=O)NCC(=O)N[C@H](C(=O)N[C@@H](CC(N)=O)C(=O)NCC(=O)O)C(C)C)C(C)C)C(C)C
Source text: as §1, §2

[6] = substrate: CSCC[C@H](N)C(=O)NCC(=O)N[C@@H](CCCCN)C(=O)N[C@H](C(=O)N[C@@H](CCCCN)C(=O)N[C@H](C(=O)NCC(=O)N[C@H](C(=O)N[C@@H](CC(N)=O)C(=O)O)C(C)C)C(C)C)C(C)C
Source text: as §1, §2

[7] = substrate: CSCC[C@H](N)C(=O)N[C@@H](C)C(=O)N[C@@H](CO)C(=O)O
Source text: as §1, §2

[8] = substrate: CSCC[C@H](N)C(=O)NCC(=O)N[C@@H](CCCCN)C(=O)N[C@H](C(=O)N[C@@H](CCCCN)C(=O)N[C@H](C(=O)NCC(=O)N[C@H](C(=O)N[C@@H](CC(N)=O)C(=O)NCC(=O)N[C@@H](Cc1ccccc1)C(=O)O)C(C)C)C(C)C)C(C)C
Source text: as §1, §2

[9] = substrate: CSCC[C@H](N)C(=O)NCC(=O)N[C@@H](CCCCN)C(=O)O
Source text: as §1, §2

[10] = substrate: CSCC[C@H](N)C(=O)NCC(=O)N[C@@H](CO)C(=O)N[C@@H](CO)C(=O)N[C@@H](CCCCN)C(=O)N[C@@H](CO)C(=O)N[C@@H](CCCCN)C(=O)N1CCC[C@H]1C(=O)O
Source text: as §1, §2

[11] = substrate: CSCC[C@H](N)C(=O)NCC(=O)N[C@@H](CCCCN)C(=O)N[C@H](C(=O)N[C@@H](CCCCN)C(=O)N[C@H](C(=O)O)C(C)C)C(C)C
Source text: as §1, §2

[12] = substrate: CSCC[C@H](N)C(=O)NCC(=O)N[C@@H](CCCCN)C(=O)N[C@H](C(=O)N[C@@H](CCCCN)C(=O)O)C(C)C
Source text: as §1, §2

B1: MetAP2 (Homo sapiens) (protein)
chain: MAGVEEVAASGSHLNGDLDPDDREEGAASTAEEAAKKKRRKKKKSKGPSAAGEQEPDKESGASVDEVARQLERSALEDKERDEDDEDGDGDGDGATGKKKKKKKKKRGPKVQTDPPSVPICDLYPNGVFPKGQECEYPPTQDGRTAAWRTTSEEKKALDQASEEIWNDFREAAEAHRQVRKYVMSWIKPGMTMIEICEKLEDCSRKLIKENGLNAGLAFPTGCSLNNCAAHYTPNAGDTTVLQYDDICKIDFGTHISGRIIDCAFTVTFNPKYDTLLKAVKDATNTGIKCAGIDVRLCDVGEAIQEVMESYEVEIDGKTYQVKPIRNLNGHSIGQYRIHAGKTVPIVKGGEATRMEEGEVYAIETFGSTGKGVVHDDMECSHYMKNFDVGHVPIRLPRTKHLLNVINENFGTLAFCRRWLDRLGESKYLMALKNLCDLGIVDPYPPLCDIKGSYTAQFEHTILLRPTCKEVVSRGDDY
notes: gp67 secretion signal of vector pAcGP67B (N); made in house; host or cells: baculovirus-infected Sf9 insect cells, secreted into medium
B1 gave a Km [1] of 623.7 µM, a kcat [1] of 6.7 s⁻¹ and a kcat/Km [1] of 10000 M⁻¹ s⁻¹. For the same protein, the Km [2] was 224.4 µM, the kcat [2] was 4.87 s⁻¹ and the kcat/Km [2] was 21700 M⁻¹ s⁻¹. It also gave a Km [3] of 259.9 µM, a kcat [3] of 3.78 s⁻¹ and a kcat/Km [3] of 15000 M⁻¹ s⁻¹. It also gave a Km [4] of 208.3 µM, a kcat [4] of 4.87 s⁻¹ and a kcat/Km [4] of 23300 M⁻¹ s⁻¹. It also gave a Km [5] of 163.6 µM, a kcat [5] of 10.2 s⁻¹ and a kcat/Km [5] of 61700 M⁻¹ s⁻¹. For the same protein, the Km [6] was 205.0 µM, the kcat [6] was 10.2 s⁻¹ and the kcat/Km [6] was 50000 M⁻¹ s⁻¹. For the same protein, the Km [7] was 211.5 µM, the kcat [7] was 2.54 s⁻¹ and the kcat/Km [7] was 12000 M⁻¹ s⁻¹. The Km [8] was 131.3 µM, the kcat [8] was 9.43 s⁻¹ and the kcat/Km [8] was 71700 M⁻¹ s⁻¹. For the same protein, the Km [9] was 757.6 µM, the kcat [9] was 3.32 s⁻¹ and the kcat/Km [9] was 5000 M⁻¹ s⁻¹. For the same protein, the Km [10] was 233.1 µM, the kcat [10] was 3.94 s⁻¹ and the kcat/Km [10] was 16700 M⁻¹ s⁻¹. For the same protein, the Km [11] was 149.3 µM, the kcat [11] was 8.53 s⁻¹ and the kcat/Km [11] was 56700 M⁻¹ s⁻¹. For the same protein, the Km [12] was 188.1 µM, the kcat [12] was 10.4 s⁻¹ and the kcat/Km [12] was 55000 M⁻¹ s⁻¹.
